Laboratory results taken from US7074904.
Read-outs that look alike come from different tables or passages of the source.

Assays:
[1] = target: membrane-bound single-chain I-A^d-OVA (SCT1 construct) on transfected NSO cells (mouse (I-A^d); chicken (OVA peptide)); assay: flow cytometry, FITC-conjugated 10-3.6 isotype control 1:100 on T2 (SCT1-transfectant)
[2] = target: membrane-bound single-chain I-A^d-OVA (SCT1 construct) on transfected NSO cells (mouse (I-A^d); chicken (OVA peptide)); assay: flow cytometry, FITC-conjugated 10-3.6 isotype control 1:100 on T6 (SCT1-transfectant)
[3] = target: I-A^d on NSO parental cells (untransfected negative control, H-2^d background) (mouse) (UniProt P04228); assay: flow cytometry, FITC-conjugated 10-3.6 isotype control 1:100 on NSO (parental) cells
[4] = target: membrane-bound single-chain I-A^d-OVA (SCT1 construct) on transfected NSO cells (mouse (I-A^d); chicken (OVA peptide)); assay: flow cytometry, FITC-conjugated 10-3.6 isotype control 1:100 on T12 (SCT1-transfectant)
[5] = target: soluble single-chain I-A^d-OVA with EE antibody tag (SCE1 construct) secreted by transfected NSO cells (mouse (I-A^d); chicken (OVA peptide)); assay: sandwich ELISA of Example 18, M5/114 capture and biotinylated AMS-32.1 detection; undiluted culture supernatant of E10 (SCE1 transfectant)
[6] = target: soluble single-chain I-A^d-OVA from insect cells (SSC1 gene in pMBSC1.2, SF9 cells) (mouse (I-A^d); chicken (OVA peptide)); assay: sandwich ELISA, M5/114 capture and biotinylated AMS-32.1 detection; cotransfection mix supernatant, undiluted
[7] = target: soluble single-chain I-A^d-OVA from insect cells (SSC1 gene in pMBSC1.2, SF9 cells) (mouse (I-A^d); chicken (OVA peptide)); assay: sandwich ELISA, M5/114 capture and biotinylated AMS-32.1 detection; cotransfection mix supernatant, diluted 1:4
[8] = target: soluble single-chain I-A^d-OVA from insect cells (SSC1 gene in pMBSC1.2, SF9 cells) (mouse (I-A^d); chicken (OVA peptide)); assay: sandwich ELISA, M5/114 capture and biotinylated AMS-32.1 detection; supernatant of virus clone F8
[9] = target: soluble single-chain I-A^d-OVA from insect cells (SSC1 gene in pMBSC1.2, SF9 cells) (mouse (I-A^d); chicken (OVA peptide)); assay: sandwich ELISA, M5/114 capture and biotinylated AMS-32.1 detection; cotransfection mix supernatant, diluted 1:2
[10] = target: soluble single-chain I-A^d-OVA with EE antibody tag (SCE1 construct) secreted by transfected NSO cells (mouse (I-A^d); chicken (OVA peptide)); assay: sandwich ELISA of Example 18, M5/114 capture and biotinylated AMS-32.1 detection; undiluted culture supernatant of E11 (SCE1 transfectant)
[11] = target: soluble single-chain I-A^d-OVA from insect cells (SSC1 gene in pMBSC1.2, SF9 cells) (mouse (I-A^d); chicken (OVA peptide)); assay: sandwich ELISA, M5/114 capture and biotinylated AMS-32.1 detection; cotransfection mix supernatant, diluted 1:8
[12] = target: Neuron Specific Enolase (NSE), supernatant of SF9 cells infected with recombinant Baculovirus; assay: sandwich ELISA, M5/114 capture and biotinylated AMS-32.1 detection; supernatant of SF9 cells infected with NSE Baculovirus (negative control)
[13] = target: soluble single-chain I-A^d-OVA from insect cells (SSC1 gene in pMBSC1.2, SF9 cells) (mouse (I-A^d); chicken (OVA peptide)); assay: sandwich ELISA of Example 18, M5/114 capture and biotinylated AMS-32.1 detection; sc I-A^d-OVA from insect cell culture (positive control)
[14] = target: soluble single-chain I-A^d-OVA from insect cells (SSC1 gene in pMBSC1.2, SF9 cells) (mouse (I-A^d); chicken (OVA peptide)); assay: sandwich ELISA, M5/114 capture and biotinylated AMS-32.1 detection; supernatant of virus clone C6
[15] = target: full-length murine I-A^d/OVA 323-339 MHC class II fusion complex (pJRS165.1) expressed on NSO cells (mouse; chicken) (UniProt P04228); assay: flow cytometry, FITC-conjugated isotype control antibody 1:100 on clone NSO/IA^d/OVA.A4
[16] = target: full-length murine I-A^d/OVA 323-339 MHC class II fusion complex (pJRS165.1) expressed on NSO cells (mouse; chicken) (UniProt P04228); assay: flow cytometry, FITC-conjugated isotype control antibody 1:100 on clone NSO/IA^d/OVA.B4
[17] = target: full-length murine I-A^d/OVA 323-339 MHC class II fusion complex (pJRS165.1) expressed on NSO cells (mouse; chicken) (UniProt P04228); assay: flow cytometry, FITC-conjugated isotype control antibody 1:100 on clone NSO/IA^d/OVA.B5
[18] = target: murine class II MHC molecule I-A^d on A20.1-11 cells (mouse) (UniProt P04228); assay: flow cytometry, FITC-conjugated isotype control antibody 1:100 on A20.1-11 cells (positive control)
[19] = target: full-length murine I-A^d/OVA 323-339 MHC class II fusion complex (pJRS165.1) expressed on NSO cells (mouse; chicken) (UniProt P04228); assay: flow cytometry, FITC-conjugated isotype control antibody 1:100 on clone NSO/IA^d/OVA.B2
[20] = target: I-A^d on NSO parental cells (untransfected negative control, H-2^d background) (mouse) (UniProt P04228); assay: flow cytometry, FITC-conjugated isotype control antibody 1:100 on untransfected NSO cells (negative control)
[21] = target: membrane-bound single-chain I-A^d-OVA (SCT1 construct) on transfected NSO cells (mouse (I-A^d); chicken (OVA peptide)); assay: flow cytometry, FITC-conjugated AMS 32.1 1:100 on T2 (SCT1-transfectant)
[22] = target: membrane-bound single-chain I-A^d-OVA (SCT1 construct) on transfected NSO cells (mouse (I-A^d); chicken (OVA peptide)); assay: flow cytometry, FITC-conjugated AMS 32.1 1:100 on T12 (SCT1-transfectant)
[23] = target: membrane-bound single-chain I-A^d-OVA (SCT1 construct) on transfected NSO cells (mouse (I-A^d); chicken (OVA peptide)); assay: flow cytometry, FITC-conjugated AMS 32.1 1:100 on T6 (SCT1-transfectant)
[24] = target: I-A^d on NSO parental cells (untransfected negative control, H-2^d background) (mouse) (UniProt P04228); assay: flow cytometry, FITC-conjugated AMS 32.1 1:100 on NSO (parental) cells
[25] = target: T cell receptor of the murine T cell hybridoma DO11.10 (I-A^d restricted, OVA peptide 323-339 specific) (mouse); assay: cell-based or functional assay
[26] = target: T cell receptor of the murine T cell hybridoma DO11.10 (I-A^d restricted, OVA peptide 323-339 specific) (mouse); assay: cell-based or functional assay; remark: listed apart in the source

isotype matched FITC-conjugated anti-I-A^k antibody, 10-3.6 (PharMingen)
Mean Fluorescence [1]: 22
Mean Fluorescence [2]: 45.1
Mean Fluorescence [3]: 32.1
Mean Fluorescence [4]: 45.9

M5/114 (ATCC TIB 120) anti-IA^d (antibody)
Absorbance (405 nm) [5]: 0.781 absorbance
Absorbance (405 nm) [6]: 0.857 absorbance
Absorbance (405 nm) [7]: 0.305 absorbance
Absorbance (405 nm) [8]: 1.45 absorbance
Absorbance (405 nm) [9]: 0.524 absorbance
Absorbance (405 nm) [10]: 0.96 absorbance
Absorbance (405 nm) [11]: 0.165 absorbance
Absorbance (405 nm) [12]: 0.098 absorbance
Absorbance (405 nm) [13]: 2.44 absorbance
Absorbance (405 nm) [14]: 1.56 absorbance

FITC-conjugated anti-IA^k antibody (Pharmingen), isotype matched irrelevant antibody
peak channel fluorescence [15]: 34 channel
peak channel fluorescence [16]: 11 channel
peak channel fluorescence [17]: 10 channel
peak channel fluorescence [18]: 5 channel
peak channel fluorescence [19]: 14 channel
peak channel fluorescence [20]: 5 channel

AMS-32.1 anti-IA^d (Pharmingen) (antibody)
Mean Fluorescence [21]: 613
Mean Fluorescence [22]: 911
Mean Fluorescence [23]: 418
Mean Fluorescence [24]: 280

B1: I-A^d on A20 cells with added OVA 323-339 peptide (peptide-MHC, mouse)
MHC II alpha: EDDIEADHVGFYGTTVYQSPGDIGQYTHEFDGDELFYVDLDKKKTVWRLPEFGQLILFEPQGGLQNIAAEKHNLGILTKRSNFTPATNEAPQATVFPKSPVLLGQPNTLICFVDNIFPPVINITWLRNSKSVTDGVYETSFLVNRDHSFHKLSYLTFIPSDDDIYDCKVEHWGLEEPVLKHWEPEIPAPMSELTETVVCALGLSVGLVGIVVGTIFIIQGLRSGGTSRHPGPL
MHC II beta: GNSERHFVVQFKGECYYTNGTQRIRLVTRYIYNREEYVRYDSDVGEYRAVTELGRPDAEYWNSQPEILERTRAEVDTACRHNYEGPETSTSLRRLEQPNVAISLSRTEALNHHNTLVCSVTDFYPAKIKVRWFRNGQEETVGVSSTQLIRNGDWTFQVLVMLEMTPHQGEVYTCHVEHPSLKSPITVEWRAQSESARSKMLSGIGGCVLGVIFLGLGLFIRHRSQKGPRGPPPAGLLQ
peptide: SISQAVHAAHAEINEAGR
IL-2 ELISA result (Absorbance), DO11.10 with A20 + OVA 323-339 peptide (positive control) [25]: 1.33 Absorbance
IL-2 ELISA result (Absorbance), DO11.10 with A20 + OVA 323-339 peptide (positive control) [26]: 1.45 Absorbance
